The source of these data is US20260158142A1 (published 2026).

This test deals with T1, human amyloid beta (Aβ42), T cell epitope peptide on H2-IAb (mouse).
T1 peptide: KLVFFAEDVGSNKGA
Description: multimer staining.

B1: Aβ-Th1 TCR (TCR, V domains shown)
Valpha: QQQVRQSPQSLTVWEGETAILNCSYENSAFDYFPWYQQFPGEGPALLISILSVSNKKEDGRFTIFFNKREKKLSLHIADSQPGDSATYFCAGGDYANKMIFGLGTILRVRP
Vbeta: DPKIIQKPKYLVAVTGSEKILICEQYLGHNAMYWYRQSAKKPLEFMFSYSYQKLMDNQTASSRFQPQSSKKNHLDLQITALKPDDSATYFCASSQDRSYNSPLYFAAGTRLTVT
Take B1: the binding result is recorded as “recognises”.
